Here are results for 2 molecules from paper PMC5800842.

The target of assay [1] is LGR4 (human (endogenous in HAP1)) (UniProt Q9BXB1).

Numbering of substitutions follows the chain as printed. Names and notes keep the numbering of the source.

B1: HA-RSPO3 R67A/Q72A-Tev-Fc-Avi-1D4 (Fc fusion)
chain: QNASRGRRQRRMHPNVSQGCQGGCATCSDYNGCLSCKPRLFFALEAIGMKAIGVCLSSCPSGYYGTRYPDINKCTKCKADCDTCFNKNFCTKCKSGFYLHLGKCLDNCPEGLEANNHTMECVSIVHCEVSEWNPWSPCTKKGKTCGFKRGTETRVREIIQHPSAKGNLCPPTNETRKCTVQRKKCQKGERGKKGRERKRKKPNKGESKEAIPDSKSLESSKEIPEQRENKQQQKKRKVQDKQKSVSVSTVH
Take B1: in the assay with ZNRF3/RNF43, the EC50 of potentiation of WNT reporter fluorescence in WT HAP1-7TGP cells with 1.43% WNT3A CM, fold over wild-type RSPO3 stood at 21 fold.

B2: HA-RSPO3 F106E/F110E-Tev-Fc-Avi-1D4 (Fc fusion)
chain: B1 chain with A46R, A51Q, F85E, F89E
B2: in assay [1], the EC50 of potentiation of WNT reporter fluorescence in WT HAP1-7TGP cells with 1.43% WNT3A CM, fold over wild-type RSPO3 was 2.9 fold and the efficacy (maximum WNT reporter activity) in WT HAP1-7TGP cells with 1.43% WNT3A CM, reduction against wild-type RSPO3 stood at 48 % reduction.
